The chains are these.
B1: MOR02619 (Fab, V domains shown)
VH: QVQLQESGPGLVKPGETLSLTCTVSGGSISSYYWSWIRQAPGKGLEWIGIGHWGSTQYNPSLKGRVTISVDTSKNQFSLKLSSVTAEDTAVYYCARFFDVWGQGTLVTVSS
VL: DIVLTQPPSVSGAPGQRVTISCSGSSSNIGSNTVRWYQQLPGTAPKLLIYSNNKRPSGVPDRFSGSKSGTSASLAITGLQSEDEADYYCQSWDGASTGVFGGGTKLTVLG
notes: HuCAL GOLD Fab, VH4/L1
B2: MOR02715 (Fab, V domains shown)
VH: QVQLVESGGGLVQPGGSLRLSCAASGFTFSSYGMHWVRQAPGKGLEWVSVISSSGSYIYYADSVKGRFTISRDNSKNTLYLQMNSLRAEDTAVYYCARNKVGFDVWGQGTLVTVSS
VL: DIALTQPASVSGSPGQSITISCTGTSSDGGGYNTVSWYQQHPGKAPKLMIYYVHKRPSGVSNRFSGSKSGNTASLTISGLQAEDEADYYCQAWDNQGMKYVFGGGTKLTVLG
notes: HuCAL GOLD Fab, VH3/L2
B3: MOR03062 (Fab, V domains shown)
VH: B2 VH
VL: B2 VL with A92S, N95L, Q96S, G97V, M98H, K99Q, Y100V
notes: Fab, L-CDR3 derivative of MOR02715
B4: MOR03064 (Fab, V domains shown)
VH: B2 VH
VL: B2 VL with A92S, N95L, Q96L, G97A, M98P, K99S, Y100V
notes: as for B3
B5: MOR03245 (Fab, V domains shown)
VH: QVQLQESGPGLVKPGETLSLTCTVSGGSISSYYWSWIRQAPGKGLEWIGVIHKWGFTNYNPSLKSRVTISVDTSKNQFSLKLSSVTAADTAVYYCARFFDVWGQGTLVTVSS
VL: DIVLTQPPSVSGAPGQRVTISCSGSSSNIGSNTVRWYQQLPGTAPKLLIYSNNKRPSGVPDRFSGSKSGTSASLAITGLQSEDEADYYCWTGMSYHFVFGGGTKLTVLG
notes: Fab, H-CDR2 derivative of MOR03069
B6: MOR03255 (Fab, V domains shown)
VH: B2 VH with S53N, S54R, G55S
VL: B2 VL with A92S, N95L, Q96S, G97V, M98H, K99Q, Y100V
notes: Fab, H-CDR2 derivative of MOR03062
B7: MOR03251 (Fab, V domains shown)
VH: B2 VH with S53N, S54M, G55S, S56Y, Y57T
VL: B2 VL with A92S, N95L, Q96S, G97V, M98H, K99Q, Y100V
notes: as for B6
B8: MOR03252 (Fab, V domains shown)
VH: B2 VH with S53N, S54Y, G55S, S56W, Y57H
VL: B2 VL with A92S, N95L, Q96S, G97V, M98H, K99Q, Y100V
notes: as for B6
B9: MOR03257 (Fab, V domains shown)
VH: B2 VH with S53N, S54R, S56N
VL: B2 VL with A92S, N95L, Q96S, G97V, M98H, K99Q, Y100V
notes: as for B6
B10: MOR03253 (Fab, V domains shown)
VH: B2 VH with S53N, S54M, S56F, Y57E
VL: B2 VL with A92S, N95L, Q96S, G97V, M98H, K99Q, Y100V
notes: Fab, H-CDR2 derivative

Changes are numbered by the printed parent chain.

The first test has as its target recombinant fibronectin domain ED-B (His)6 (human) (UniProt P02751). Kind of test: SPR (BIAcore), ED-B immobilised on chip. Background: In SPR one partner is held on a chip, and binding of the other changes the refractive index at the surface.
For the molecule “AP39, covalent dimer of the anti-ED-B scFv antibody L19”, the koff is 0.0015 s⁻¹.

Another test concerns the target T1, recombinant fibronectin domain ED-B (His)6 (human, UniProt P02751 1266-1356).
T1 construct: domain: ED-B; Produced by standard procedures; immobilised on ELISA plates or on the BIAcore chip; also called recombinant ED-B; human ED-B
Description: SPR (BIAcore), ED-B immobilised on chip, Fab in flow. As to the method:
(§1) F1-Chips (Biacore, Sweden) were coated with about 200 RU of ED-B (30 μg/ml, 10 mmol of acetate buffer, pH 4.0) and reference flow cells with a corresponding amount of human serum albumin (20 μg/ml, 10 mmol of acetate buffer, pH 4.5) with use of standard EDC-NHS-amine-coupling chemistry. The antigen density was reduced to about 100 RU for the Fab characterization of the second maturation. The regeneration was carried out with 10 mmol of HCl. All kinetic measurements were carried out in PBS buffer (136 mmol of NaCl, 2.7 mmol of KCl, 10 mmol of Na₂HPO₄, 1.76 mmol of KH₂PO₄, pH 7.4) with a flow rate of 20 μl/minute with use of a Fab concentration range of 1.5-500 nmol. The injection period was 1 minute in each case. All sensograms were evaluated with use of BIA evaluation software 3.1.
The properties of twelve selected binding molecules was determined by BIAcore analysis (see Table 1). […] At least two independent measurements with Fab molecules from different batches were performed for protein expression and protein purification. The binding rate (Kₒₙ) and the dissociating-off rate (Koff) of the Fab molecule are indicated in separate columns.
B1: the Kd was 15.4 nM, the dissociation rate constant (koff) worked out at 0.012 s⁻¹ and the kon was 780000 M⁻¹ s⁻¹.
As for B2, the Kd was found to be 53.7 nM, the koff was 0.047 s⁻¹ and the kon is 890000 M⁻¹ s⁻¹.

The target in the next test is T2, recombinant fibronectin domain 6 (UniProt P02751 1086-1172, limits assumed).
T2 construct: domain: fibronectin domain 6; also called 6FN; 6-FN
Description: specificity ELISA on immobilised recombinant fibronectin domain 6. A general note: An ELISA detects its analyte on a solid surface through an enzyme-linked reagent.
With B1, the binding result is recorded as “no binding”.
Still for that read-out and setting: to B2 belongs “no binding”.

The target of a further test is T1, recombinant fibronectin domain ED-B …. Kind of test: SPR (BIAcore); ratio to parent clone MOR02715. The method, then:
as §1
On to B3, for which the “x-Fold Improvement Relative to the Parent Clone, KD” value was found to be 15.8 fold; the “x-Fold Improvement Relative to the Parent Clone, Koff” value amounted to 4.2 fold; the “x-Fold Improvement Relative to the Parent Clone, Kon” value was determined as 4 fold.
The corresponding values for B4 are 5.3 fold, 3.5 fold and 1.7 fold.

For a further test, the target named is recombinant fibronectin domain ED-B (His)6 (human) (UniProt P02751). Kind of test: SPR (BIAcore), ED-B immobilised on chip. This is another data set of the same source.
In the case of “AP39, covalent dimer of the anti-ED-B scFv antibody L19”, the kon stood at 675000 M⁻¹ s⁻¹.

A further test deals with T3, recombinant fibronectin domain 7-8-9 (without ED-B) (UniProt P02751-1 1173-1446, limits assumed).
T3 construct: domain: fibronectin domains 7-8-9 (without ED-B)
Kind of test: specificity ELISA on immobilised recombinant domain 7-8-9.
On to B1, for which the binding result was “no binding”.
Still for that read-out and setting: under B2 stands “no binding”.

The target of another test is T3, recombinant fibronectin domain 7-8-9 …. The test is described as above. The source holds these as a separate data set.
On to B5, for which the binding result is given as “no binding”.
On to B6, for which the binding result is “no binding”.
On to B7, for which the binding result is “no binding”.
The same measure, in the same setting: under B8 stands “no binding”.
The same measure, in the same setting: to B9 belongs “no binding”; to B10, “no binding”.

Another test addresses T1, recombinant fibronectin domain ED-B …. Kind of test: SPR (BIAcore), ED-B immobilised on chip (about 100 RU), Fab in flow. The method, then: as §1
B5: the Kd was found to be 0.7 nM, the koff turned out to be 0.0016 s⁻¹ and the kon was 3.5e+06 M⁻¹ s⁻¹.
The corresponding values for B6 are 0.03 nM, 8.6e-05 s⁻¹ and 4.9e+06 M⁻¹ s⁻¹.
For B7 the same measures were 0.07 nM, 0.0002 s⁻¹ and 3.3e+06 M⁻¹ s⁻¹.
The corresponding values for B8 are 0.03 nM, 6.1e-05 s⁻¹ and 3.1e+06 M⁻¹ s⁻¹.
With B9, the Kd was 0.08 nM, the koff came to 0.0003 s⁻¹ and the kon stood at 5.3e+06 M⁻¹ s⁻¹.
Turning to B10, the Kd was 0.13 nM, the koff was determined as 0.0002 s⁻¹ and the kon was 1.6e+06 M⁻¹ s⁻¹.

The next test has as its target T2, recombinant fibronectin domain 6. Kind of test: specificity ELISA on immobilised recombinant fibronectin domain 6. This is another data set of the same source.
Consider B5, for which the binding result is on record as “no binding”.
Same read-out and setting: under B6 stands “no binding”; under B7, “no binding”.
For B8, the binding result was “no binding”.
On the same count and under the same terms, to B9 belongs “no binding”; to B10, “no binding”.

The target in another test is T1, recombinant fibronectin domain ED-B …. Description: SPR (BIAcore), ED-B immobilised on chip, Fab in flow. This is another data set of the same source. As to the method: as §1
For B1, the Kd was found to be 15.4 nM, the koff was found to be 0.012 s⁻¹ and the kon worked out at 780000 M⁻¹ s⁻¹.
The corresponding values for B3 are 3.4 nM, 0.011 s⁻¹ and 3.5e+06 M⁻¹ s⁻¹.
The corresponding values for B4 are 10 nM, 0.014 s⁻¹ and 1.5e+06 M⁻¹ s⁻¹.
On to B2, for which the Kd came out at 53.7 nM, the koff was determined as 0.047 s⁻¹ and the kon stood at 990000 M⁻¹ s⁻¹.

Another test addresses recombinant fibronectin domain ED-B (His)6 (human) (UniProt P02751). Kind of test: SPR (BIAcore), ED-B immobilised on chip. This is another data set of the same source.
“AP39, covalent dimer of the anti-ED-B scFv antibody L19”: the Kd is 2.4 nM, the koff came out at 0.00149 s⁻¹ and the kon turned out to be 660000 M⁻¹ s⁻¹.

What is called koff is the first-order rate constant of dissociation. As a reminder, the Kd is a measure of binding affinity in units of concentration. For orientation: kon means a measure of how fast the partners come together.

(Values after patent publication US20060115428A1 (MorphoSys, published 2006).)
